Source: patent US20230340132A1, “ANTI-ADENOSINE RECEPTOR (A2aR) ANTIBODIES” (NA Biotech Corp, priority 2020, published 2023)
Several values for one entry are separate records, joined by “and”; a condition that tells them apart may be missing. Identical values can stand only once. Entries after “also recorded” stand apart in the source; their conditions may differ.

T1: human adenosine receptor A1 (Homo sapiens, UniProt P30542)
T1 construct: FLAG
T1 sequence (P30542 1-326): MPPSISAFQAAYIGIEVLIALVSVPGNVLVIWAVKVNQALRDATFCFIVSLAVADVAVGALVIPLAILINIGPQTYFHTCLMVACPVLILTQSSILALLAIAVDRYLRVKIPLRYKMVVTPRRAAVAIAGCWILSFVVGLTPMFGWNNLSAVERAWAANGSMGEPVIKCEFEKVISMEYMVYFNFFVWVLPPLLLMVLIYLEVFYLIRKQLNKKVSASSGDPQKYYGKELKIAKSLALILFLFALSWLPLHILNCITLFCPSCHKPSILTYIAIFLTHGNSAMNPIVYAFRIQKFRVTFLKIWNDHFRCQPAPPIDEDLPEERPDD

T2: human adenosine receptor A2B (Homo sapiens, UniProt P29275)
T2 construct: FLAG
T2 sequence (P29275 1-332): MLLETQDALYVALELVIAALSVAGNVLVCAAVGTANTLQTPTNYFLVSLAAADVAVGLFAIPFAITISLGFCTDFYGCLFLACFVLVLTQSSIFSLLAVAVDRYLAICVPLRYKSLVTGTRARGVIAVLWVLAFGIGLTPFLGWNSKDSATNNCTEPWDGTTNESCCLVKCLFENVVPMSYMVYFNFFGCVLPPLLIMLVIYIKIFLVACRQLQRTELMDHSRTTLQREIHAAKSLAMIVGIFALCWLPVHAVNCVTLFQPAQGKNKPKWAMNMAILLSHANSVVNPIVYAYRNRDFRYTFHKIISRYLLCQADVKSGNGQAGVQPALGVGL


Experiments:
[1] = biological target: T1, human adenosine receptor A1; experiment: flow cytometry-based cell-binding assay, HEK293T-A1; settings: for Geo Mean: HEK293T-A1, duplicate; for binding to HEK293T-A1 relative to binding to human A2aR (in words): summary of Table 12
Procedure: (§1) To test the specificity of the antigen binding molecules of the invention, e.g., anti-A2aR antibodies or antigen binding fragments thereof to human A2aR and not towards any of the other 3 adenosine receptor family members, a flow cytometry-based cell-binding assay was performed by Multispan Inc (Hayward, CA). HEK293T cells stably expressing various adenosine receptors, i.e., human A1R, A2bR, and A3R, and mouse A2R, generated by Multispan Inc and HEK293T parental cell lines were used in the assay. Briefly, adenosine receptor-overexpressing cell lines and HEK293T parental cell lines were incubated with 2, 10, and 50 nM of anti-human A2aR monoclonal antibodies (clones 1B5-3D7 and 3F6-9G5) and 10 and 50 nM of mouse IgG2a Isotype control at 4° C. in the dark for 60 minutes. Anti-FLAG antibody (Abcam, ab72469, 2 μg/mL) was used as positive control for cell lines over-expressing various adenosine receptors, respectively. After 3 washes with FACS buffer (PBS plus 0.1% BSA and 0.2% sodium azide), cells were stained with an anti-mouse-IgG-PE (Invitrogen, cat. P852) detection antibody for 45 minutes at 4° C. The cells were then washed 3 times with FACS buffer and analyzed on FACSort (Becton Dickinson). Data was analyzed using CellQuest Pro (Becton Dickinson).

[2] = biological target: T3, human adenosine receptor A2A (Homo sapiens, UniProt P29274); experiment: flow cytometry-based cell-binding assay, HEK293T-A2A; settings: for Geo Mean: HEK293T-A2A, duplicate; for binding to human A2aR (in words): summary of Table 12
T3 construct: FLAG
T3 sequence (P29274 whole entry): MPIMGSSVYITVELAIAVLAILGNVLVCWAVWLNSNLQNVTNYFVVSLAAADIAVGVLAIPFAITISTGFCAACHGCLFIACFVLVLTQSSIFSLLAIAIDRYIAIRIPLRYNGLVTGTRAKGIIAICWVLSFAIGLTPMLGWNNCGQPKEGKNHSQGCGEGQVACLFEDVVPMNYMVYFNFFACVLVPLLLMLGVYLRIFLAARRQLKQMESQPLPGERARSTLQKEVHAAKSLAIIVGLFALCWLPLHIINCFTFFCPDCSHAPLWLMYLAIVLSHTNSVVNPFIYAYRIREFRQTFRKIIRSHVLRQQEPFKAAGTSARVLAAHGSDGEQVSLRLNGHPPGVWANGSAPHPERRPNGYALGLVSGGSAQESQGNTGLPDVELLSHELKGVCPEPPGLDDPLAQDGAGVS
Procedure: as §1

[3] = biological target: T2, human adenosine receptor A2B; experiment: flow cytometry-based cell-binding assay, HEK293T-A2B; settings: duplicate
Procedure: as §1

[4] = biological target: T4, mouse adenosine receptor A2A (Mus musculus, UniProt Q60613); experiment: flow cytometry-based cell-binding assay, HEK293T-mA2A; settings: duplicate
T4 construct: FLAG
T4 sequence (Q60613 whole entry): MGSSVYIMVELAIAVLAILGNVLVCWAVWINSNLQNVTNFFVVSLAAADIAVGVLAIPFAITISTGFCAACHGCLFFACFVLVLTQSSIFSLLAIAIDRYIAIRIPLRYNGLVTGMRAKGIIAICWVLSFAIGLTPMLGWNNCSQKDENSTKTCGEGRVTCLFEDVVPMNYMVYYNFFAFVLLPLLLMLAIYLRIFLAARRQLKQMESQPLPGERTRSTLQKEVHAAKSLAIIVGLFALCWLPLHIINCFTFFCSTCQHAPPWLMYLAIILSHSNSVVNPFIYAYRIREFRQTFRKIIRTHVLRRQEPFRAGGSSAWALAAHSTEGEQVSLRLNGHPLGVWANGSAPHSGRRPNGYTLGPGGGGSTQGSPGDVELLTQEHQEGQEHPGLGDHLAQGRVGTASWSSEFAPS
Procedure: as §1

[5] = system: HEK293T cell without exogenous adenosine receptor; experiment: flow cytometry-based cell-binding assay, parental HEK293T; set-up: species or system human; settings: duplicate
Procedure: as §1

parental Expi293 cells [6] = experiment: FACS screening of hybridoma clones on parental Expi293 cells; assay type: binding; settings: antibodies from hybridoma clones
Procedure: Serum titration was performed using Fluorescence-Activated Cell Sorting (FACS) pursuant to standard procedures. Human A2aR-expressing Expi293 cells were first added to 96-well plate (1×10^5 cells per well), 50 μl of serial diluted serum (1:50, 1;150, 1:450, 1:[…], 1:12150) from each individual mouse was incubated with cells for 30 min. on ice. After washing with FACS buffer (2% Fetal bovine serum, 2 mM EDTA in PBS), Alex Fluor 647-conjugated anti mouse IgG was added and incubated for 20 min on ice. Cells were resuspending with 100 μl FACS buffer after two times wash and ready for FACS analysis (BD LSR II Flow Cytometer, HTS). […] (MFI: mean fluorescence intensity).
Primary screening of the hybridoma supernatants in the 96-well plates was performed using the same FACS procedure as described for serum titration except following changes: 1) Human A2aR-expressing Expi293 cells (expressing GFP) were mixed at 1:1 ratio with parental Expi293 (no A2aR expression) and added to 96-well plates (2×10^5 cells per well), 2) 50 μl hybridoma supernatant transferred from each well of 96-well plates was incubated with cells for 30 min. on ice.
Sub-cloning was performed by limiting dilution method. In short, the positive wells identified by FACS were seeded into 96-well plate at an average density of 1 cell/well. The […] was placed in incubator for 7-10 days to allow the growth of the cells. The growth of cells was monitored periodically. At about day 4, the wells on the plate were observed under phase contrast microscopy and the wells which appeared to have single colony growing (i.e., only one clumping of hybridomas) were recorded. The cells from the single colony wells were screed by FACS using the same procedure as described for primary screening of hybridoma when the confluence of the cell reached about 50%.

human A2aR = biological target: T5, human A2aR (Homo sapiens, UniProt P29274); experiment: FACS binding titration on hA2aR-Expi293 cells; settings: 12-point 1:2 serial dilution starting from 7.5 ug/ml
T5 construct: expressed in transfected cells; host or cells: Expi293
T5 sequence (P29274 whole entry): as the sequence (P29274 whole entry) above
Procedure: (§2) Human A2aR-expressing Expi293 cells or parental Expi293 cells were first added to 96-well plate (1×10^5 cells per well). Fifty microliters (50 μl) of 12-point 1:2 serial diluted samples starting from 7.5 ug/ml for each antibody was incubated with cells for 30 minutes on ice. After being washed with FACS buffer (2% Fetal bovine serum in DPBS), […] of Alex Fluor 633-conjugated anti mouse IgG (Life technology, Cat.A21050) or Alex Fluor 647-conjugated anti-human IgG was added and incubated for 30 minutes on ice. Cells were resuspended with 100 μl of FACS buffer after two washes. One hundred microliters 100 μl of 1:50 diluted 7-AAD for live/dead staining was added to the cell suspension, which was ready for FACS analysis (BD Accuri C6 plus or LSR II Flow Cytometer, HTS).

parental Expi293 cells [7] = experiment: FACS binding titration on parental Expi293 cells; settings: 12-point 1:2 serial dilution starting from 7.5 ug/ml
Procedure: as §2

| Molecule | Geo Mean ([1]; 2 nM) | Geo Mean ([1]; 10 nM) | Geo Mean ([1]; 50 nM) | binding to HEK293T-A1 relative to binding to human A2aR (in words) [1] | Geo Mean ([2]; 2 nM) | Geo Mean ([2]; 10 nM) | Geo Mean ([2]; 50 nM) | binding to human A2aR (in words) [2] | Geo Mean ([3]; 2 nM) | Geo Mean ([3]; 50 nM) | Geo Mean ([4]; 2 nM) | Geo Mean ([4]; 10 nM) | Geo Mean ([4]; 50 nM) | Geo Mean ([5]; 2 nM) | Geo Mean ([5]; 10 nM) | Geo Mean ([5]; 50 nM) | binding to parental Expi293 cells (FIG. 2) (parental Expi293 cells [6]) | binding to hA2aR-Expi293 (FIG. 5) (human A2aR) | binding to parental Expi293 (FIG. 5) (parental Expi293 cells [7]) |
| --- | --- | --- | --- | --- | --- | --- | --- | --- | --- | --- | --- | --- | --- | --- | --- | --- | --- | --- | --- |
| anti-human A2aR monoclonal antibody 1B5-3D7 (antibody, V domains shown, Tested as whole mouse IgG2a / kappa, purified from hybridoma supernatant or made recombinantly in Expi293 cells; also called 1B-3D7) VH: QVQLQQPGTELVKPGAPVKLSCKTSGFTFTRFWMNWVRQRPGRGLEWIGRIDPYDSETQYNHKFWDRATLTVDKSSSTVYIQLSSLTSEDSAVYYCGRSLYGKGDYWGQGTTLTVSS VL: DVLMTQSPLSLPVSLGDQASISCRSSQSIVHSNGNTYLEWYLQRPGQSPKLLIYKVSNRFSGVPDRFSGSGSGTYFTLRISRVEAEDLGIYYCFQGSHVPLTFGSGTTLELK | 10.15 and 11.83 | 18.4 and 24.97 | 27.59 and 30.66 | significantly weaker | 97.49 and 95.04 | 261.79 and 221.91 | 260.67 and 377.56 | specifically bound to human A2aR | 5.42 and 3.8 | 3.42 and 2.79 | 2.96 and 3.82 | 4.13 and 6.16 | 3.48 and 6.03 | 3.69 and 4.11 | 5.42 and 4.07 | 5.24 and 4.96 | not to parental Expi293 cells | strong dose-dependent specific binding; also recorded: specifically binds | not to parental Expi293 |
| 3F6-9G5: anti-human A2aR monoclonal antibody from mouse hybridoma clone; HCVR SEQ ID NO: 36, LCVR SEQ ID NO: 42 (antibody, V domains shown) VH: QVQLQQPGTELVKPGAPVRLSCKASGFAFTSYWMNWVRQRPGRGLEWIGRIDPSDSEAHYHHKFWGKATLTVDKSSSTVYIQLNGLTSEDSAVYYCLRSLYGKGDYWGHGTTLTVSS VL: DVLMTQTPLSLSVRLGDQASISCRSSQSLVHRNGNTYLEWYLQRPGQSPKLLIYKVSNRFSGVPDRFSGSGSGTDFTLKISRVEAEDLGVYYCYQGSHVPLTFGSGTKLEIK | 8.35 and 8.81 | 15.26 and 15.56 | 22.97 and 22.51 | significantly weaker | 112.47 and 109.2 | 273.51 and 290.29 | 270 and 289.37 | specifically bound to human A2aR | 3.13 and 2.8 | 7.27 and 3.74 | 2.9 and 3.08 | 3.7 and 3.25 | 4.98 and 4.76 | 3.98 and 4.33 | 4.01 and 4.27 | 4.19 and 6.16 | not to parental Expi293 cells | strong dose-dependent specific binding; also recorded: specifically binds | not to parental Expi293 |
